Experimental data reported in US20020114805A1.

Legend:
[1] = target: human lymphotoxin (TNFβ) (human) (UniProt P01374); experiment: cell-based or functional assay
[2] = target: human tumor necrosis factor-α (TNFα) (human) (UniProt P01375); experiment: cell-based or functional assay
Chain of human tumor necrosis factor-α (TNFα) (human) (P01375 77-233): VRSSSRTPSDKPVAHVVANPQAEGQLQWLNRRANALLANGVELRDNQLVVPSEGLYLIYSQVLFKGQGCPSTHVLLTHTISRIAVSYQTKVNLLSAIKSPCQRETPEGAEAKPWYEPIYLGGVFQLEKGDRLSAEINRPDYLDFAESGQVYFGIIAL

Chain of human lymphotoxin (TNFβ) (human) (P01374 35-205 limits assumed): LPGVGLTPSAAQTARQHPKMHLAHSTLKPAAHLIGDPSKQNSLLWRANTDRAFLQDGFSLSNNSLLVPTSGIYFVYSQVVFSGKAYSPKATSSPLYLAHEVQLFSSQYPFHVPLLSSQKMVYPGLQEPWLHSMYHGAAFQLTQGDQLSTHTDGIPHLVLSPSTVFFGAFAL

“p55-sf2 TNF receptor/IgG1 fusion protein (from UniProt P19438) (Fc fusion)” showed an amount needed for the same degree of inhibition of TNFβ cytotoxicity, against p75P-sf2 (fold against p75P-sf2) [1] of 3.

With “p75-sf2 TNF receptor/IgG1 fusion protein (from UniProt P20333 23-257) (Fc fusion)” the amount needed for the same degree of inhibition of TNFβ cytotoxicity, against p75P-sf2 (fold against p75P-sf2) [1] was 3.

With “p75P-sf2 TNF receptor/IgG1 fusion protein (from UniProt P20333 23-204) (Fc fusion)” the concentration to half-inhibit human TNFβ at 2 pM, WEHI 164 cytotoxicity assay [1] was 31 pM.

B1: chimeric mouse/human IgG1 anti-platelet mAb (7E3) (antibody, INN chains, looked up, V domains shown)
VH: EVQLQQSGTVLARPGASVKMSCEASGYTFTNYWMHWVKQRPGQGLEWIGAIYPGNSDTSYIQKFKGKAKLTAVTSTTSVYMELSSLTNEDSAVYYCTLYDGYYVFAYWGQGTLVTVSA
VL: EIVLTQSPVTLSVTPGDSVSLSCRASRDISNNLHWFQQTSHESPRLLIKYASQSMSGIPSRFSGSGSGTDFTLSINSVETEDFGMYFCQQTNSWPYTFGGGTKLEIK
modifications: chimeric IgG1
In the case of B1, the IL-6 in supernatant of FS-4 fibroblasts (ng/ml), rhTNF 0.3 ng/ml with 4 µg/ml antibody (no antibody: 1.36) [2] is reported as 1.6 ng/mL, the IL-6 in supernatant of FS-4 fibroblasts (ng/ml), rhTNF 1.5 ng/ml with 4 µg/ml antibody (no antibody: 2.00) [2] is reported as 1.96 ng/mL and the IL-6 in supernatant of FS-4 fibroblasts (ng/ml), rhTNF 7.5 ng/ml with 4 µg/ml antibody (no antibody: 2.56) [2] is reported as 2.16 ng/mL.
